Results on three compounds are retold here after publication PMC7615185, “Structural basis for ion selectivity in potassium-selective channelrhodopsins” (Cell, 2023).

The target of assay [1] is T1, HcKCR2 (Hyphochytrium catenoides, UniProt Z9CM73ZIR3).
T1 construct: M1-D265; MSP1E3D1/SoyPC nanodisc; residues 2-260 modelled (initiator Met lost); homotrimer
T1 sequence (Z9CM73ZIR3 1-265): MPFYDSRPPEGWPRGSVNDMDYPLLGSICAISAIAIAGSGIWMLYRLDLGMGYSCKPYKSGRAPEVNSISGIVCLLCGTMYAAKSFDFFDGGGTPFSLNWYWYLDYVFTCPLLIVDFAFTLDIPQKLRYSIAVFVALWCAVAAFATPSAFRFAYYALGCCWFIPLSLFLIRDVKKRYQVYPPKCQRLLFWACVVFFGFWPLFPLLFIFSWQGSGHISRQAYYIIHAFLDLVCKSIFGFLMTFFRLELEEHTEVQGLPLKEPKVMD
The assay can be described thus: cryo-EM structure. The settings on record: dark state, nanodisc, pH 7.5; covalent Schiff base to K233; 6-s-cis conformer. The class given is binding.

The target in assay [2] is HcKCR1 WT (K+-selective channelrhodopsin 1 from Hyphochytrium catenoides) (Hyphochytrium catenoides). Briefly: cryo-EM structure; dark state; protein in MSP1E3D1/SoyPC nanodiscs, 20 mM HEPES-NaOH pH 7.5, 100 mM NaCl; C3 symmetry.
The target in assay [3] is HcKCR2 WT (K+-selective channelrhodopsin 2 from Hyphochytrium catenoides) (Hyphochytrium catenoides). Described as above.

For the compound `CC1=C(/C=C/C(C)=C/C=C/C(C)=C/C=O)C(C)(C)CCC1` [all-trans-retinal], the cryo-EM structure entry in assay [1] is “HcKCR2 thus represents the initial naturally occurring microbial rhodopsin with experimentally demonstrated 6-s-cis-retinal configuration”.
The term stoichiometry N denotes the number of molecules, sites or subunits per partner or assembly. Compound “HcKCR1 WT (K+-selective channelrhodopsin 1 from Hyphochytrium catenoides) (domain or fragment)” came in with a stoichiometry N in assay [2] of 3.
Take “HcKCR2 WT (K+-selective channelrhodopsin 2 from Hyphochytrium catenoides) (domain or fragment)”: in assay [3], the stoichiometry N is 3.
